Assay results taken from patent US20120196307.

T1: synaptotagmin-1, intact 65 kDa protein (rat), P21707
T1 chain: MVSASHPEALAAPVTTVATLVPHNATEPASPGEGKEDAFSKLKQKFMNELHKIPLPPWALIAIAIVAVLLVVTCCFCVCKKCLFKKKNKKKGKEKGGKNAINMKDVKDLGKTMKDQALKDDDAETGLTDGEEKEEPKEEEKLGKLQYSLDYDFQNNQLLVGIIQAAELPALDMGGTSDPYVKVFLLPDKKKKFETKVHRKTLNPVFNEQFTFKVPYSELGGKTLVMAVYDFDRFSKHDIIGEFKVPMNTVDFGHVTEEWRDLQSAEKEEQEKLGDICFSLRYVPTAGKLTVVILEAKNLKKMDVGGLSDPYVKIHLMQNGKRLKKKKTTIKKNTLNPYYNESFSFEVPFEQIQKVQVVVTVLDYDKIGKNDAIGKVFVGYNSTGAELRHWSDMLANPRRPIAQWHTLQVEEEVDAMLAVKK

B1: rat recombinant calpain-2 (Calbiochem) (protein)
chain: MAGIAMKLAKDREAAEGLGSHERAIKYLNQDYETLRNECLEAGALFQDPSFPALPSSLGFKELGPYSSKTRGIEWKRPTEICADPQFIIGGATRTDICQGALGDCWLLAAIASLTLNEEILARVVPLDQSFQENYAGIFHFQFWQYGEWVEVVVDDRLPTKDGELLFVHSAEGSEFWSALLEKAYAKINGCYEALSGGATTEGFEDFTGGIAEWYELRKPPPNLFKIIQKALEKGSLLGCSIDITSAADSEAVTYQKLVKGHAYSVTGAEEVESSGSLQKLIRIRNPWGQVEWTGKWNDNCPSWNTVDPEVRANLTERQEDGEFWMSFSDFLRHYSRLEICNLTPDTLTCDSYKKWKLTKMDGNWRRGSTAGGCRNYPNTFWMNPQYLIKLEEEDEDDEDGERGCTFLVGLIQKHRRRQRKMGEDMHTIGFGIYEVPEELTGQTNIHLSKNFFLTTRARERSDTFINLREVLNRFKLPPGEYVLVPSTFEPHKNGDFCIRVFSEKKADYQTVDDEIEANIEEIEANEEDIGDGFRRLFAQLAGEDAEISAFELQTILRRVLAKREDIKSDGFSIETCKIMVDMLDEDGSGKLGLKEFYILWTKIQKYQKIYREIDVDRSGTMNSYEMRKALEEAGFKLPCQLHQVIVARFADDELIIDFDNFVRCLVRLEILFKIFKQLDPENTGTIQLDLISWLSFSVL
B2: human calpain-2 (Calbiochem, Cat#208715) (protein)
chain: AGIAAKLAKDREAAEGLGSHDRAIKYLNQDYEALRNECLEAGTLFQDPSFPAIPSALGFKELGPYSSKTRGIEWKRPTEICADPQFIIGGATRTDICQGALGDCWLLAAIASLTLNEEILARVVPLNQSFQENYAGIFHFQFWQYGEWVEVVVDDRLPTKDGELLFVHSAEGSEFWSALLEKAYAKINGCYEALSGGATTEGFEDFTGGIAEWYELKKPPPNLFKIIQKALQKGSLLGCSIDITSAADSEAITFQKLVKGHAYSVTGAEEVESNGSLQKLIRIRNPWGEVEWTGRWNDNCPSWNTIDPEERERLTRRHEDGEFWMSFSDFLRHYSRLEICNLTPDTLTSDTYKKWKLTKMDGNWRRGSTAGGCRNYPNTFWMNPQYLIKLEEEDEDEEDGESGCTFLVGLIQKHRRRQRKMGEDMHTIGFGIYEVPEELSGQTNIHLSKNFFLTNRARERSDTFINLREVLNRFKLPPGEYILVPSTFEPNKDGDFCIRVFSEKKADYQAVDDEIEANLEEFDISEDDIDDGFRRLFAQLAGEDAEISAFELQTILRRVLAKRQDIKSDGFSIETCKIMVDMLDSDGSGKLGLKEFYILWTKIQKYQKIYREIDVDRSGTMNSYEMRKALEEAGFKMPCQLHQVIVARFADDQLIIDFDNFVRCLVRLETLFKIFKQLDPENTGTIELDLISWLCFSVL
B3: recombinant human caspase-3 (Chemicon) (protein)
chain: SGISLDNSYKMDYPEMGLCIIINNKNFHKSTGMTSRSGTDVDAANLRETFRNLKYEVRNKNDLTREEIVELMRDVSKEDHSKRSSFVCVLLSHGEEGIIFGTNGPVDLKKITNFFRGDRCRSLTGKPKLFIIQACRGTELDCGIETDSGVDDDMACHKIPVEADFLYAYSTAPGYYSWRNSKDGSWFIQSLCAMLKQYADKLEFMHILTRVNRKVATEFESFSFDATFHAKKQIPCIVSMLTKELYFYH
B4: human erythrocyte calpain-1 (protein)
chain: SEEIITPVYCTGVSAQVQKQRARELGLGRHENAIKYLGQDYEQLRVRCLQSGTLFRDEAFPPVPQSLGYKDLGPNSSKTYGIKWKRPTELLSNPQFIVDGATRTDICQGALGDCWLLAAIASLTLNDTLLHRVVPHGQSFQNGYAGIFHFQLWQFGEWVDVVVDDLLPIKDGKLVFVHSAEGNEFWSALLEKAYAKVNGSYEALSGGSTSEGFEDFTGGVTEWYELRKAPSDLYQIILKALERGSLLGCSIDISSVLDMEAITFKKLVKGHAYSVTGAKQVNYRGQVVSLIRMRNPWGEVEWTGAWSDSSSEWNNVDPYERDQLRVKMEDGEFWMSFRDFMREFTRLEICNLTPDALKSRTIRKWNTTLYEGTWRRGSTAGGCRNYPATFWVNPQFKIRLDETDDPDDYGDRESGCSFVLALMQKHRRRERRFGRDMETIGFAVYEVPPELVGQPAVHLKRDFFLANASRARSEQFINLREVSTRFRLPPGEYVVVPSTFEPNKEGDFVLRFFSEKSAGTVELDDQIQANLPDEQVLSEEEIDENFKALFRQLAGEDMEISVKELRTILNRIISKHKDLRTKGFSLESCRSMVNLMDRDGNGKLGLVEFNILWNRIRNYLSIFRKFDLDKSGSMSAYEMRMAIESAGFKLNKKLYELIITRYSEPDLAVDFDNFVCCLVRLETMFRFFKTLDTDLDGVVTFDLFKWLQLTMFA

How the values were obtained:
[1] = molecular target: CRMP-2 C-terminal 53-mer (500-552) synthetic peptide, Q16555
[2] = molecular target: T1, synaptotagmin-1, intact 65 kDa protein …
[3] = molecular target: collapsin response mediator protein-2, intact (rat), P47942

Protein | in vitro digestion of the synthetic peptide, Coomassie gel and N-terminal microsequencing [1] | in vitro protease digestion of lysate, Western blot [2] | in vitro protease digestion of naive brain lysate, Western blot [3]
B1 | Purified CRMP-2 C-terminal 53-mer (500-552) peptide was synthesized and digested by rat calpain-2. |  | 
B2 |  | Syt1-blot also showed a calpain-concentration-dependent reduction of intact Syt1. Calpain treatment also produced a BDP identical to the 33 Syt1-fragment produced following TBI. | 
B3 |  | Syt1 was resistant to caspase-3 in the same samples | caspase-3 treatment did not produce the 55 kDa BDP
B4 |  | Digestion with calpain-1 showed identical results (data not shown). | 
